11 molecules from PMC5605238 can be followed below.

The target of data set [1] is T1, RecQ4 (Homo sapiens, UniProt O94761 1-1208).
T1 sequence: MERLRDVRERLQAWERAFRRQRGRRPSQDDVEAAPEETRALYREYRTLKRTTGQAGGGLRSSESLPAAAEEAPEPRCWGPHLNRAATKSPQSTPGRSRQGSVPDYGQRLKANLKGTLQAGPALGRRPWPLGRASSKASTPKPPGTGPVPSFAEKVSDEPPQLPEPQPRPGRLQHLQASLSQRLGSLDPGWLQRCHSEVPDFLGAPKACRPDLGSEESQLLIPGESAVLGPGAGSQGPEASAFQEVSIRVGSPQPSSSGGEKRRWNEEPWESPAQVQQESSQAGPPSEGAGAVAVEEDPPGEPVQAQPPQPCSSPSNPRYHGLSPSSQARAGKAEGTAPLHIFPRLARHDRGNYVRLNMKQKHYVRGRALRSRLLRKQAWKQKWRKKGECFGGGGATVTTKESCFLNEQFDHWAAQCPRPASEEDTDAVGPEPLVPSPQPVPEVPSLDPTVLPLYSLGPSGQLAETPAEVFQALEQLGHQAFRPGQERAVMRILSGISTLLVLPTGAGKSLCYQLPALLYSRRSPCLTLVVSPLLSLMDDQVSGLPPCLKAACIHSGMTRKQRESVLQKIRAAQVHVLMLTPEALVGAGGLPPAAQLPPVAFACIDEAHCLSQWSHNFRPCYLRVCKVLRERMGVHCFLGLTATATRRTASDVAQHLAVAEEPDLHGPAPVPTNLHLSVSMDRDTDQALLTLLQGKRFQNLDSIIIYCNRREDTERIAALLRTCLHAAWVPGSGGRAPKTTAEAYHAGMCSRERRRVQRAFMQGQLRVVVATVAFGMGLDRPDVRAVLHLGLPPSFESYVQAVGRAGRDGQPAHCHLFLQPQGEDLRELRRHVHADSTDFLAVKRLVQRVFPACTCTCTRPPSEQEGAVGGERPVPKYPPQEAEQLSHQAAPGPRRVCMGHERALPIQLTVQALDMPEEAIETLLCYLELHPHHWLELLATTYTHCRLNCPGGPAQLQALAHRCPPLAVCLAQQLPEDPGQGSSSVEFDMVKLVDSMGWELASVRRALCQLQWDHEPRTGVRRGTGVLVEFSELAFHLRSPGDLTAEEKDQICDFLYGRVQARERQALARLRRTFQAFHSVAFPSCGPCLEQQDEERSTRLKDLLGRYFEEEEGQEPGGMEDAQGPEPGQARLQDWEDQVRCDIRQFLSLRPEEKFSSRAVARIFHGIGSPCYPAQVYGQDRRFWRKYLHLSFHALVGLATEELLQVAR
The experiment in a line: EMSA.

The target of data set [2] is T2, Hrq1 (Saccharomyces cerevisiae, UniProt Q05549 1-1077).
T2 sequence: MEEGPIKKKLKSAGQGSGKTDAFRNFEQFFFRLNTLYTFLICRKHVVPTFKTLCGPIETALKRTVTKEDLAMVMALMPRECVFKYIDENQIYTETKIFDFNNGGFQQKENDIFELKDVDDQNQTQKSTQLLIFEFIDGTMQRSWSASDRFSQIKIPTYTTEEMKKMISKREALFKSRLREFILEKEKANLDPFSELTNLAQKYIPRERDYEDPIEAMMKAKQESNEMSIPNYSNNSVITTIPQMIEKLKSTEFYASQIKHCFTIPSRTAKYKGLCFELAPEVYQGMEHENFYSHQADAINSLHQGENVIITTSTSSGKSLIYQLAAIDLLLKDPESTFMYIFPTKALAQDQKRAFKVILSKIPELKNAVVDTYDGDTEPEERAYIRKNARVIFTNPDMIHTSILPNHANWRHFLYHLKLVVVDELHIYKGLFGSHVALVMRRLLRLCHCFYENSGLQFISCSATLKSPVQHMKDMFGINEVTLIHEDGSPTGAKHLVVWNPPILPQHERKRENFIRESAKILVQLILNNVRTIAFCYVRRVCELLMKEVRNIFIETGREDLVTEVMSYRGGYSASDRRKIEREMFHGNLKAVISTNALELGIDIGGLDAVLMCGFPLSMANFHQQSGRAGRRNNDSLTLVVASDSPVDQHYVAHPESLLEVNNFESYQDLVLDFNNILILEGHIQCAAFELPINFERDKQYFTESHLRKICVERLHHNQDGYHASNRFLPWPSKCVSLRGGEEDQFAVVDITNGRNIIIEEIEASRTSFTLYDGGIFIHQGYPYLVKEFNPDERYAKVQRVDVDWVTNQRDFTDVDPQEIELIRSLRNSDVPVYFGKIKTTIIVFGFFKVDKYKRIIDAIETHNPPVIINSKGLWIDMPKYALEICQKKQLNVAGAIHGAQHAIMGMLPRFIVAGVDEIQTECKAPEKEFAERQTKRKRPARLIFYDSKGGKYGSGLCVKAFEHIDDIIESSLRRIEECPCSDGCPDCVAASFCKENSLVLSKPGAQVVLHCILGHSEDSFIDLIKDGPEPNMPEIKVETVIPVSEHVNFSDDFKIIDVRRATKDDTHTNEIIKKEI
The experiment in a line: EMSA.

B1: 25-nt Random Fork (dsDNA)
DNA 1: ACCGTTGTGCAACTGAGTGGACAACGTGTCACTCACATAGCGTTC
DNA 2: GAACGCTATGTGAGTGACACCAACAGGTGAGTCAACGTGTTGCCA
In data set [1], B1 gave a Kd of 108 ± 32.5 nM.

B2: 3' tail (dsDNA)
DNA 1: GAACGCTATGTGAGTGACACCAACAGGTGAGTCAACGTGTTGCCA
DNA 2: GTGTCACTCACATAGCGTTC
As for B2, the dissociation constant (Kd) is 141 ± 59.4 nM in data set [2] and 21.8 ± 4.2 nM in data set [1].

B3: 5' tail (dsDNA)
DNA 1: ACCGTTGTGCAACTGAGTGGACAACGTGTCACTCACATAGCGTTC
DNA 2: GAACGCTATGTGAGTGACAC
On to B3, for which the values for the Kd in data set [2] and in data set [1] were 154 ± 44.6 nM and 102 ± 29.4 nM, respectively.
As for TTTTTTTTTTTTTTTTTTTTTTTTTTTTTTTTTTTTTTTT (ssDNA) [Poly(dT) 40mer ssDNA], the Kd in data set [2] stood at 3.45 ± 0.19 nM; in data set [1] it was 2.38 ± 0.15 nM.

B4: D-loop (structured_DNA)
DNA 1: GGGTGAACCTGCAGGTGGGCGGCTGCTCATCGTAGGTTAGTGGTAGAATTCGGCAGCGTC
DNA 2: GACGCTGCCGAATTCTACCATGCCTTGCTAGGACATCTTTGCCCACCTGCAGGTTCACCC
DNA 3: TAAGAGCAAGATGTTCTATAAAAGATGTCCTAGCAAGGCA
As for B4, the Kd in data set [2] was 9.9 ± 0.7 nM; in data set [1] it was 12.6 ± 1.8 nM.

B5: Human Tel Fork (Poly(TTAGGG) Fork) (dsDNA)
DNA 1: TTAGGGTTAGGGTTAGGGTTAGGGTGTGTCACTCACATAGCGTTC
DNA 2: GAACGCTATGTGAGTGACACTTAGGGTTAGGGTTAGGGTTAGGGT
In the case of B5, the equilibrium dissociation constant (Kd) in data set [2] is 15.7 ± 1.7 nM; in data set [1], 39.7 ± 8.3 nM.

B6: Poly(dT) Fork (dsDNA)
DNA 1: TTTTTTTTTTTTTTTTTTTTTTTTTGTGTCACTCACATAGCGTTC
DNA 2: GAACGCTATGTGAGTGACACTTTTTTTTTTTTTTTTTTTTTTTTT
In the case of B6, the Kd came out at 6.5 ± 0.5 nM in data set [2] and 50.9 ± 10.4 nM in data set [1].

B7: Holliday junction (HJ) (structured_DNA)
DNA 1: GACGCTGCCGAATTCTGGCTTGCTAGGACATCTTTGCCCACGTTGACCC
DNA 2: TGGGTCAACGTGGGCAAAGATGTCCTAGCAATGTAATCGTCTATGACGTT
DNA 3: CAACGTCATAGACGATTACATTGCTAGGACATGCTGTCTAGAGACTATCGA
DNA 4: ATCGATAGTCTCTAGACAGCATGTCCTAGCAAGCCAGAATTCGGCAGCGT
With B7, the Kd came to 79.2 ± 22.7 nM in data set [2] and 90.1 ± 23.4 nM in data set [1].

B8: G4 (structured_DNA)
DNA: AAAGGGGGAGCTGGGGTAGATGGGAATGTGAGGGCAACAGGTGAGTCAACGTGTTGCCA
Take B8: the dissociation constant Kd in data set [2] was found to be 17.6 ± 2.2 nM; in data set [1], 12.3 ± 2.5 nM.

B9: Bubble (dsDNA)
DNA 1: GGTGAACCTGCAGGTGGGCGGCTGCTCATCGTAGGTTAGTTGGTAGAATTCGGCAGCGTC
DNA 2: GACGCTGCCGAATTCTAGGTTGATTGGATGCTACTCGTCGGCGCCACCTGCAGGTTCACC
B9: the results for the Kd in data set [2] and in data set [1] were 36.1 ± 4.9 nM and 16.8 ± 2.3 nM, respectively.

B10: Yeast Tel Fork (Poly(TG1-3) Fork) (dsDNA)
DNA 1: GGTGTGGTGTGGGTGTGGTGTGGGTGTGTCACTCACATAGCGTTC
DNA 2: GAACGCTATGTGAGTGACACTGGGTGTGGTGTGGGTGTGGTGTGG
For B10, the Kd in data set [2] worked out at 3.5 ± 0.4 nM; in data set [1] it was 18.5 ± 3.1 nM.
